In assay [1] the test system is chicken fibroblast cell line SL29. Description: Cell attachment assay, fibroblasts on protein-coated solid support. It counts as cell-based. Conditions: for SL29 fibroblast attachment to coated substrate (words): CT coated at 20 μg/ml, binding fragments at 0.75 μM, non-binding at three times that, 1 hour; for spreading of SL29 cells on substrate: coated at 0.75 μM. On the procedure: In the cell attachment assays, a single cell suspension was allowed to settle for a fixed period of time onto a solid support that has been coated with the different CT-derived proteins to be tested for cell attachment (Friedlander, et al., J. Cell Biol. 107: 2329-2340 (1988)). After removing the unbound and loosely bound cells by washing, the attachment and morphology of those cells remaining on the dish were analyzed.
Solid supports, consisting of a circular array of CT or CT:GST fusion proteins bound to a dish, were prepared as follows for the cell attachment assay.
For the initial study, non tissue-culture treated polystyrene plates (Falcon 1008) were spotted with 2 μl of a 0.5 to 1.5 μM solution of CT in PBS for 30 minutes to coat a specific area on the dish with CT. CT was isolated from chicken brain or from fibroblast culture supernatant as described in Crossin, PNAS 88: 11403-11407 (1991) and Hoffman et al., J. Cell Biol. 106: 519-532 (1988). CT was placed in a circular array near the center of the dish and incubated at 37° C. for 30 minutes. After CT had adsorbed to the dish, the central portion of the dish was washed once with 250 μl of 20% (w/v) BSA in PBS. Non-specific binding sites on the dish were then blocked with 250 μl of 20% (w/v) BSA in PBS by incubation for 2 to 3 hours at room temperature.
For the subsequent study with the CT:GST fusion proteins, non tissue-culture treated polystyrene plates (Falcon 1008) were spotted with 2 μl of a 0.5 to 1.5 μM solution of CT:GST fusion protein in PBS as prepared in Example 5.A.2 or GST in PBS for 30 minutes to coat a specific area on the dish with CT:GST fusion protein or GST. The proteins to be tested were placed in a circular array near the center of the dish and incubated at 37° C. for 30 minutes. After the proteins adsorbed to the dish, the central portion of the dish was washed once with 250 μl of 20% (w/v) BSA in PBS. Non-specific binding sites on the dish were then blocked with 250 μl of 20% (w/v) BSA in PBS by incubation for 2 to 3 hours at room temperature.
The chicken fibroblast cell line SL29 (ATCC CRL 1590) was grown to confluence in Dulbecco's Minimum Essential Medium (DMEM; Gibco-BRL, Gaithersburg, Mass.) with 10% (v/v) fetal calf serum (FCS; Gibco-BRL) with penicillin and streptomycin. The cells were passaged the night prior to the assay and seeded at a density of 1:2. Cells were harvested in calcium, magnesium-free Hank's balanced salt solution (CMF-HBSS, Gibco-BRL) with 20 mM Hepes buffer and 5 mM EDTA. Harvested cells were washed in attachment buffer (CMF-HBSS with 10 mM Hepes, 1 mM CaCl2, 1 mM MgCl2, 0.1 mM MnCl2, and 2% (w/v) bovine serum albumin (BSA)) three times. The number of cells was quantitated by counting the cells in a hemocytometer. The cells were resuspended in attachment buffer to a density of 6×10^5 cells/ml.
Chicken fibroblasts, DRG, and solid supports (dishes) coated with CT for use in the cell attachment assays were prepared as described in Examples 5.A.2-4, respectively. The chicken fibroblasts and DRG at a density of 6×10^5 cells/ml were added to the prepared dishes and incubated at 37° C. in 5% CO2 for 1 hour. The dishes were then washed three times in PBS with gentle swirling to remove unattached cells, fixed in 1% glutaraldehyde in PBS, and viewed by phase contrast microscopy. The number of bound cells was determined using a 10× objective with an eyepiece reticle. The number of cells was determined in four fields for each fusion protein dot as the number of cells bound per […]. CT was tested in triplicate. The number of cells bound for CT was expressed as the average of the twelve measurements±standard deviation […].
CT, coated at a concentration of 20 μg/ml, was used as a solid support for SL29 fibroblast attachment. […] Fragments of CT were generated using the pGEX fusion protein system, as described in Example 1. The cell attachment assay was performed essentially as described above for the cell attachment assay to intact CT. […]

Assay [2] deals with neurons from chick forebrain. Put plainly: CNS neurite outgrowth, forebrain neurons, 7 hours. It counts as cell-based. Conditions: 7 hour growth period; for % Sprouting: Table 4, FB (forebrain) neurons. On the procedure: Dorsal root ganglia (DRG) cells or forebrain neurons were prepared for the cell attachment assays as follows. DRG from day 6 chicken embryos or forebrains from day 7 chicken embryos were dissected into HBSS. The tissue was pelleted by centrifugation and resuspended in CMF-HBSS and incubated at 37° C. for 10 minutes. The tissue was pelleted again and resuspended in CMF-HBSS containing 0.08% trypsin and allowed to trypsinize for 20 minutes at 37° C. An equal volume of DMEM/F12, 10% FCS, 20 ng/ml nerve growth factor (NGF) (for DRG cells only), 10 μg/ml gentamycin (10% medium) was added, and the tissue was pelleted and resuspended in 2 ml of the 10% medium. The cells were triturated with a fire-polished Pasteur pipette for 15 strokes, and the cells were washed and resuspended in 10 ml of 10% medium. DRG cells were plated in a 10 cm tissue culture dish and incubated for 1 hour at 37° C. in 5% CO2, to allow for attachment of contaminating fibroblasts.
After replating, the cells were harvested, pelleted and washed three times in DMEM/F12, 1% fetal calf serum (FCS), 20 ng/ml NGF (for DRG cells only), 10 μg/ml gentamycin (1% medium), and the number of cells determined using a hemocytometer. The DRG were resuspended to a density of 6×10^5 cells/ml in attachment buffer. The neurons were resuspended to a density of 2×10^4 cells/ml in 1% medium and added to substrates and placed at 37° C., 5% CO2 for 15 hours.
After the growth period, the dishes were gently rinsed with PBS to remove unbound cells, fixed with 1% glutaraldehyde, and viewed by phase contrast microscopy. Ten to forty cells were analyzed for each substrate. Cells were judged as neurite-bearing if the length of the processes was greater than one cell diameter. All cells with neurites were photographed with a 20× objective and total neurite length per neurite-bearing cell was derived from the photographic prints. Percentage of neuronal sprouting was calculated from at least six experiments. Neurite length was calculated from at least three experiments.
To investigate whether CNS neurons could also extend neurites on CT/TN and CT/TN fragments, neurons from chick forebrain were plated at low density on CT/TN, CT/TN fragments and polylysine, and analyzed for neurite outgrowth after a 7 hour growth period (a time period found to be optimal for stable neurite outgrowth from these cells). The lengths of neurites on substrates that supported sprouting were essentially the same for the forebrain neurons and were therefore not quantitated further.

In assay [3] the test system is DRG cells. Description: DRG neurite outgrowth, 40 hour culture, morphology. It counts as cell-based, chicken. Conditions: DRG cells cultured 40 hours. On the procedure: In order to assess the effect to the cell binding regions of CT/TN on the outgrowth of neurites from PNS neurons, DRG cells were cultured for 40 hours on popylysine, CTfn3, CTfn6, CTfg, and CTfn3-CTfn6 mixed substrates. The cultures were then fixed and the cell and neurite morphology was analyzed by phase contrast microscopy. The cells were plated on plastic substrates coated with the same concentrations of CTITN and fusion proteins used in the attachment assay.

“Also recorded” adds a separate entry of the source.

B1: CTfn6: CT:GST fusion protein, fibronectin type III repeat VI, residues 1318-1398 of SEQ ID NO 4 (protein)
chain: VVGSPKGISFSDITENSARVSWTPPRSRVDSYRVSYVPITGGTPNVVTVDGSKTRTKLVKLVPGVDYNVNIISVKGFEESE
modifications: left off: a dimerising Fc or GST
For the molecule B1, in assay [1], the “SL29 fibroblast attachment to coated substrate (words)” value (from here on “SL29 fibroblast attachment”) was “robust SL29 cell attachment was supported; also recorded: supports both fibroblast and neuronal cell attachment”; the “spreading of SL29 cells on substrate” value was “little or no spreading”. Besides, the “SL29 fibroblast attachment” value in assay [1] (listed as Ctfn6) was “support fibroblast and neuronal cell attachment”. The “SL29 fibroblast attachment” value in assay [1] (listed as sixth repeat) is “fibroblast attachment activity was localized to the sixth repeat”. Moreover, in assay [2], the “forebrain cell attachment” value is recorded as “promotes attachment”, the “forebrain neuron sprouting versus polylysine” value is listed as “significant increase” and the “% Sprouting” value came to 8.7 ± 1.9 %. The “neurite and cell morphology after 40 hours” value (“neurite and cell morphology” for short) in assay [3] is recorded as “moderately long neurites”.

B2: CTfn3: CT:GST fusion protein, fibronectin type III repeat III, residues 774-864 of SEQ ID NO 4 (protein)
chain: LDAPSQIEAKDVTDTTALITWSKPLAEIEGIELTYGPKDVPGDRTTIDLSEDENQYSIGNLRPHTEYEYEVTLISRRGDMESDPAKEVFVT
modifications: left off: a dimerising Fc or GST
Take B2: in assay [1], the “SL29 fibroblast attachment” value was “robust SL29 cell attachment was supported; also recorded: readily attached; also recorded: attached well” and the “spreading of SL29 cells on substrate” value is recorded as “exhibited cell spreading; also recorded: spreading of cells was observed”. Besides, in assay [2], the “forebrain cell attachment” value is recorded as “did not support forebrain cell attachment”, the “forebrain neuron sprouting versus polylysine” value is “no effect on neurite outgrowth” and the “% Sprouting” value came out at 0%. Further, the “neurite and cell morphology” value in assay [3] is recorded as “long fasciculated processes”.

B3: CTfg: CT:GST fusion protein, entire fibrinogen domain, residues 1570-1810 of SEQ ID NO 4 (protein)
chain: SMRSKMIQTVFTTTGLLYPYPKDCSQALLNGEVTSGLYTIYLNGDRTQPLQVFCDMAEDGGGWIVFLRRQNGKEDFYRNWKNYVAGFGDPKDEFWIGLENLHKISSQGQYELRVDLRDRGETAYAVYDKFSVGDAKTRYRLRVDGYSGTAGDSMTYHNGRSFSTFDKDNDSAITNCALSYKGAFWYKNCHRVNLMGRYGDNNHSQGVNWFHWKGHEYSIQFAEMKLRPSSFRNLEGRRKRA
modifications: left off: a dimerising Fc or GST
As to B3, in assay [1], the “SL29 fibroblast attachment” value is given as “robust SL29 cell attachment was supported; also recorded: readily attached; also recorded: attached well” and the “spreading of SL29 cells on substrate” value is recorded as “little or no spreading”. For the same molecule, in assay [2], the “forebrain neuron sprouting versus polylysine” value is “not significantly different” and the “% Sprouting” value is reported as 2.2 ± 0.5%. Besides, in assay [3], the “neurite and cell morphology” value was “basal level of outgrowth”.

The record behind these values is US6482410B1, “Cytotactin derivatives that stimulate attachment and neurite outgrowth, and methods of making same” (The Scripps Research Institute, priority 1994, dated 2002).
